Non-standard residues stand in square brackets, D forms with d. No end group written: not given here.

The source of these data is US20090286738A1 (ST GEORGE S ENTERPRISES, published 2009).

Test [1] concerns the target T1, PBX proteins of murine B16 melanoma cells (mouse (murine B16 melanoma cells), UniProt P41778 1-430, limits assumed).
T1 sequence (looked up): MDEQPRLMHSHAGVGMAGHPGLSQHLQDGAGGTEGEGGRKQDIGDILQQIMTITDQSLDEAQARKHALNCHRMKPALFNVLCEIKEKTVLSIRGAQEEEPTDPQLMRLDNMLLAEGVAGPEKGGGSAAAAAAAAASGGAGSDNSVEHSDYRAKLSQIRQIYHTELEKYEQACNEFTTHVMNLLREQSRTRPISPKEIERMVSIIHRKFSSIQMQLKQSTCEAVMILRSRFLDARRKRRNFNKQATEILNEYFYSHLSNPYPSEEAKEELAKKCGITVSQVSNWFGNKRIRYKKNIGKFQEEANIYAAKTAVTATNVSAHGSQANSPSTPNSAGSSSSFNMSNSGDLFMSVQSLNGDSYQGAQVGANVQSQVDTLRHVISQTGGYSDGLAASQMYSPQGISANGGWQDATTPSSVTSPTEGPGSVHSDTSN
Briefly: cell-based or functional assay.

Test [2] addresses PBX proteins of human cancer cell lines (A549, LNCaP, SK-OV3, A498, J82) (human (human cell lines)). Briefly: cell-based or functional assay.

As to [dW]YPWMKKHHRRRRRRRR[dR] [HXArg9(2D)], in test [1], the “IC50 (µM), MTT assay, B16F10” value is 20 µM. Moreover, in test [2], the “IC50 (µM), MTT assay, A498” value came out at 24 µM; the “IC50 (µM), MTT assay, A549” value amounted to 19 µM; the “IC50 (µM), MTT assay, J82” value was determined as 22 µM; the “IC50 (µM), MTT assay, LNCaP” value came to 21 µM. The “IC50 (µM), MTT assay, SK-OV3” value in test [2] is 22 µM.
